Reference: the supplement of paper PMC9876800

Tested on: peptide library, one residue held at a place counted from the S/T acceptor
Assay: relative phosphorylation of the sub-library (ratio to the mean residue at this position); higher = residue favoured
Conditions: human
Method in brief: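 Purified recombinant kinases were reacted in 384-well plates with biotinylated degenerate peptide sub-libraries, each having one residue fixed at one position around a central Ser/Thr. The reaction mix contained 50 μM peptide plus 50 μM ATP spiked with γ-32P-ATP and ran for 90 min under kinase-specific conditions. Relative sub-library phosphorylation, taken from densitometry of phosphorimaged streptavidin membrane spots, is a ratio to the mean residue at that position.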

PLK1, construct: Full length, sequence (P53350 whole entry, looked up): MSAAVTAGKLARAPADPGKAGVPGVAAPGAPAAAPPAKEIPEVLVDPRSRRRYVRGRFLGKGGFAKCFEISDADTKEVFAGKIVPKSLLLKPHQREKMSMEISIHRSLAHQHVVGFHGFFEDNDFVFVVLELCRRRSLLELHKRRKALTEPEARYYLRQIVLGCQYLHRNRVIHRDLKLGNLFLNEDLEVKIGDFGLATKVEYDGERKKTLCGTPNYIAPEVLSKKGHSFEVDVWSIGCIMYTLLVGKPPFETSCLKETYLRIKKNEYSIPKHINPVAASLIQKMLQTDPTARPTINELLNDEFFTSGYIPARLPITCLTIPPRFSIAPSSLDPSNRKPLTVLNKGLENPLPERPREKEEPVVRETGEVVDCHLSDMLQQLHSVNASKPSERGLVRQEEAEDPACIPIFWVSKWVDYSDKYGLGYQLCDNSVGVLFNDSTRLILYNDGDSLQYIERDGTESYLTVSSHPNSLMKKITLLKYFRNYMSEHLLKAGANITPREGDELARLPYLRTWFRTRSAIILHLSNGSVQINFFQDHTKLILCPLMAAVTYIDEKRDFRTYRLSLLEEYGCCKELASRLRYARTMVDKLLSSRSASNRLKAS
PRKX, construct: Full length, sequence (P51817 whole entry, looked up): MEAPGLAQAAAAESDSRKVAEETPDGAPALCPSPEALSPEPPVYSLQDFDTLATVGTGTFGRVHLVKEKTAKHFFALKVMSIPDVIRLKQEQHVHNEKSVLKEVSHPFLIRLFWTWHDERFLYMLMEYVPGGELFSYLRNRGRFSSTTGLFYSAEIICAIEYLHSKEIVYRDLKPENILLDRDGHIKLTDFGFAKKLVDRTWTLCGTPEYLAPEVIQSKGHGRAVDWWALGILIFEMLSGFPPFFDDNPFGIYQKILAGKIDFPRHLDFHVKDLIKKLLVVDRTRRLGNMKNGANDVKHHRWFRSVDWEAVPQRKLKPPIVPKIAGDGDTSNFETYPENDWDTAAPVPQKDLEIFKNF

PRKX, construct: Full length (from UniProt P51817)
relative phosphorylation
Conditions | at +1 | at +2 | at +3 | at +4 | at -1 | at -2 | at -3 | at -4 | at -5
A fixed | 0.71 | 1.3 | 0.688 | 0.785 | 0.651 | 0.289 | 0.299 | 1.03 | 1.08
D fixed | 0.862 | 2.53 | 1.6 | 2.09 | 0.698 | 0.224 | 0.2 | 0.876 | 1.11
E fixed | 0.814 | 1.04 | 1.32 | 1.61 | 0.424 | 0.2 | 0.208 | 0.881 | 0.985
F fixed | 0.849 | 0.505 | 0.697 | 0.599 | 0.425 | 0.212 | 0.128 | 0.515 | 0.596
G fixed | 1.06 | 1.27 | 1.49 | 1.08 | 1.29 | 0.382 | 0.477 | 1.1 | 1.4
H fixed | 0.919 | 1.16 | 1.31 | 1.04 | 1.18 | 0.662 | 1.14 | 1.09 | 1.26
I fixed | 0.872 | 0.411 | 0.344 | 0.522 | 0.184 | 0.143 | 0.111 | 0.357 | 0.528
K fixed | 1.55 | 0.713 | 1.38 | 1.12 | 2.79 | 4.76 | 3.29 | 2.53 | 2.14
L fixed | 0.859 | 0.47 | 0.627 | 0.572 | 0.399 | 0.185 | 0.112 | 0.451 | 0.507
M fixed | 0.884 | 0.504 | 0.462 | 0.643 | 0.534 | 0.176 | 0.134 | 0.575 | 0.651
N fixed | 1.41 | 1.47 | 1.52 | 1.48 | 1.7 | 0.343 | 0.383 | 0.914 | 1.11
P fixed | 0.584 | 1.84 | 1.24 | 1.3 | 1.55 | 0.395 | 0.797 | 1.22 | 0.811
Q fixed | 1.47 | 1.24 | 1.36 | 1.23 | 1.41 | 0.483 | 0.444 | 1.18 | 0.807
R fixed | 1.57 | 0.881 | 1.13 | 1.06 | 2.37 | 7.88 | 8.71 | 2.58 | 2.12
V fixed | 0.801 | 0.498 | 0.413 | 0.623 | 0.217 | 0.143 | 0.112 | 0.412 | 0.454
W fixed | 1.02 | 0.624 | 0.752 | 0.637 | 0.457 | 0.295 | 0.246 | 0.686 | 0.731
Y fixed | 0.766 | 0.548 | 0.669 | 0.608 | 0.711 | 0.234 | 0.204 | 0.613 | 0.71
pThr fixed | 1.32 | 1.05 | 1.35 | 2.62 | 0.462 | 0.431 | 0.421 | 0.921 | 1.04
pTyr fixed | 1.54 | 1.38 | 1.3 | 1.55 | 0.999 | 0.374 | 0.345 | 0.864 | 0.882

PLK1, construct: Full length (from UniProt P53350)
relative phosphorylation
Conditions | at +1 | at +2 | at +3 | at +4 | at -1 | at -2 | at -3 | at -4 | at -5
A fixed | 0.622 | 0.73 | 0.85 | 0.951 | 0.748 | 0.452 | 0.934 | 1.12 | 1.16
D fixed | 0.419 | 0.677 | 1.4 | 1.35 | 1.62 | 3.98 | 1.1 | 1.47 | 1.34
E fixed | 0.461 | 0.705 | 1.87 | 1.48 | 1.46 | 2.28 | 1.23 | 1.31 | 1.1
F fixed | 3.16 | 1.2 | 0.935 | 0.898 | 0.734 | 0.523 | 1.09 | 0.918 | 0.876
G fixed | 0.524 | 0.439 | 0.881 | 1.01 | 0.451 | 0.679 | 1.23 | 1.09 | 1.21
H fixed | 0.809 | 1.28 | 1.13 | 1.01 | 1.03 | 0.861 | 1.47 | 0.981 | 1.1
I fixed | 1.28 | 1.37 | 1.05 | 0.769 | 0.976 | 0.402 | 0.66 | 0.816 | 0.757
K fixed | 0.593 | 0.567 | 0.679 | 0.782 | 1.04 | 0.495 | 0.689 | 0.942 | 1.02
L fixed | 1.36 | 1.7 | 1.02 | 0.795 | 0.964 | 0.53 | 1.33 | 0.979 | 0.807
M fixed | 1.72 | 1.4 | 0.972 | 0.932 | 1.2 | 0.505 | 1.38 | 0.95 | 0.802
N fixed | 0.606 | 1.14 | 0.82 | 1.1 | 1.24 | 2.86 | 1.08 | 1 | 1.22
P fixed | 0.246 | 0.421 | 0.579 | 1.41 | 0.42 | 0.33 | 0.785 | 0.836 | 0.936
Q fixed | 0.856 | 0.847 | 0.982 | 0.945 | 1.17 | 0.747 | 0.857 | 0.849 | 0.842
R fixed | 0.908 | 0.959 | 0.76 | 0.813 | 1.4 | 0.641 | 0.998 | 0.961 | 1.02
V fixed | 1.06 | 1.14 | 1.02 | 0.701 | 1.03 | 0.373 | 0.552 | 0.791 | 0.813
W fixed | 0.971 | 1.05 | 1.05 | 1.09 | 0.563 | 0.636 | 0.898 | 1.16 | 1.06
Y fixed | 1.4 | 1.38 | 1 | 0.958 | 0.952 | 0.709 | 0.718 | 0.832 | 0.927
pThr fixed | 2.54 | 0.971 | 0.987 | 2.29 | 1.02 | 0.627 | 0.945 | 1.03 | 1.3
pTyr fixed | 1.02 | 1.47 | 1.67 | 1.8 | 1.98 | 0.802 | 1.01 | 0.88 | 1.33
